Biological target: preformed, sonicated Aβ aggregates (UniProt P05067 672-713)
Assay: cell-based or functional assay

Sequence of preformed, sonicated Aβ aggregates (P05067 672-713): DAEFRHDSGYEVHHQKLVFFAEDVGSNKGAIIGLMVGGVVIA

Binder: KLWFFAGSGAPIGL [AbCap_25]
- aggregation seeding capacity of Aβ in Aβ biosensor cells (IC50): 1420 nM

From patent US20230181748A1 (VIB VZW, published 2023)
